Results published in patent publication US6358897B1, “Alkyl trypsin compositions and methods of use in contact lens cleaning and disinfecting systems” (Alcon Laboratories, Inc., priority 1996, dated 2002).

Key:
Assay type in all cases: physicochemical
azocasein [1] = assay: Stability of Me-trypsin versus other trypsin analogs in a Part I composition (azocasein method); conditions: for % Activity Remaining: 45° C., 50% L-sorbose 1% borax, pH 5.79 (acetylated trypsin pH 7.54)
Experimental: Azocasein Method The following solutions are used in this assay: 1) Buffer solution: 0.05 M sodium phosphate buffer containing 0.9% sodium chloride, pH 7.6. 2) Substrate solution: 2 mg/ml azocasein in the buffer solution mentioned above. The assay is initiated by mixing 1 ml of an appropriately diluted (such that the enzyme activity is in the range of standard curve) enzyme composition in phosphate buffer with 2 ml of azocasein substrate solution (2 mg/ml). After incubation at 37° C. for 20 minutes, the mixture is removed from the incubator and 1 ml of trichloroacetic acid to (14% w/v) is added to stop the enzyme reaction. The mixture is vortexed well and allowed to stand at room temperature for 20 minutes. After centrifuging at 2500 rpm (with a Beckman GS-6R Centrifuge) for 15 minutes, the supernatant is filtered with a serum sampler. 2 ml of the clear yellow filtrate is then adjusted to a neutral pH with 2 ml of 0.5 N sodium hydroxide and the absorbance of 440 nm wavelength light is measured with a spectrophotometer. The amount of azocasein hydrolyzed is calculated based on a standard curve of known concentrations of azocasein solution developed under identical conditions. An enzyme activity unit (“AZ U”) is defined as that amount of enzyme which hydrolyzes 1 μg of azocasein substrate/minute at 37° C. […] The enzymes were solubilized in a Part I composition containing 50% (w/v) L-sorbose 1% (w/v) borax (Na2B4O7.10H2O), at pH 5.79, except the acetylated trypsin composition was at pH 7.54. The compositions were stored at 45° C. for 240 hours. At various time points, enzyme activity was assayed using the azocasein method.

azocasein [2] = assay: Enzyme stability of the Example 6 multi-purpose composition versus trypsin or pancreatin compositions, azocasein method; conditions: Me-trypsin: Example 6 composition, trypsin/pancreatin: 1.4 mL of Example 3B analog in 120 mL of Example 2B
Experimental: Azocasein Method The following solutions are used in this assay: 1) Buffer solution: 0.05 M sodium phosphate buffer containing 0.9% sodium chloride, pH 7.6. 2) Substrate solution: 2 mg/ml azocasein in the buffer solution mentioned above. The assay is initiated by mixing 1 ml of an appropriately diluted (such that the enzyme activity is in the range of standard curve) enzyme composition in phosphate buffer with 2 ml of azocasein substrate solution (2 mg/ml). After incubation at 37° C. for 20 minutes, the mixture is removed from the incubator and 1 ml of trichloroacetic acid to (14% w/v) is added to stop the enzyme reaction. The mixture is vortexed well and allowed to stand at room temperature for 20 minutes. After centrifuging at 2500 rpm (with a Beckman GS-6R Centrifuge) for 15 minutes, the supernatant is filtered with a serum sampler. 2 ml of the clear yellow filtrate is then adjusted to a neutral pH with 2 ml of 0.5 N sodium hydroxide and the absorbance of 440 nm wavelength light is measured with a spectrophotometer. The amount of azocasein hydrolyzed is calculated based on a standard curve of known concentrations of azocasein solution developed under identical conditions. An enzyme activity unit (“AZ U”) is defined as that amount of enzyme which hydrolyzes 1 μg of azocasein substrate/minute at 37° C. […] The trypsin or pancreatin compositions were prepared by dispersing 1.4 mL of Example 3B (wherein Me-trypsin was replaced by either trypsin or pancreatin) in 120 mL of Example 2B. The compositions were incubated at room temperature, 30° and 35° C. At the appointed time, aliquots were tested for enzyme activity by the azocasein method. Activity levels were compared with initial levels and expressed as percent remaining activity.

azocasein [3] = assay: Stability of Me-trypsin in the Example 2A composition, azocasein method
Experimental: Azocasein Method The following solutions are used in this assay: 1) Buffer solution: 0.05 M sodium phosphate buffer containing 0.9% sodium chloride, pH 7.6. 2) Substrate solution: 2 mg/ml azocasein in the buffer solution mentioned above. The assay is initiated by mixing 1 ml of an appropriately diluted (such that the enzyme activity is in the range of standard curve) enzyme composition in phosphate buffer with 2 ml of azocasein substrate solution (2 mg/ml). After incubation at 37° C. for 20 minutes, the mixture is removed from the incubator and 1 ml of trichloroacetic acid to (14% w/v) is added to stop the enzyme reaction. The mixture is vortexed well and allowed to stand at room temperature for 20 minutes. After centrifuging at 2500 rpm (with a Beckman GS-6R Centrifuge) for 15 minutes, the supernatant is filtered with a serum sampler. 2 ml of the clear yellow filtrate is then adjusted to a neutral pH with 2 ml of 0.5 N sodium hydroxide and the absorbance of 440 nm wavelength light is measured with a spectrophotometer. The amount of azocasein hydrolyzed is calculated based on a standard curve of known concentrations of azocasein solution developed under identical conditions. An enzyme activity unit (“AZ U”) is defined as that amount of enzyme which hydrolyzes 1 μg of azocasein substrate/minute at 37° C. […] At the appointed time, aliquots were tested for enzyme activity by the azocasein method. Activity levels were compared with initial levels and expressed as percent remaining activity.

methyl trypsin [Me-Trypsin]
% Activity Remaining (azocasein [1]; 0 Hr.): 100.0%
% Activity Remaining (azocasein [1]; 64 Hr.): 89.4%
% Activity Remaining (azocasein [1]; 96 Hr.): 86.3%
% Activity Remaining (azocasein [1]; 120 Hr.): 84.7%
% Activity Remaining (azocasein [1]; 144 Hr.): 82.2%
% Activity Remaining (azocasein [1]; 240 Hr.): 76.1%
enzyme stability in a Part I composition over other trypsin related enzyme compositions (azocasein [1]; summary of Table 1): superior enzyme stability
% Remaining Activity (azocasein [2]; 30° C., 1 week): 97.0%
% Remaining Activity (azocasein [2]; 30° C., 2 weeks): 97.2%
% Remaining Activity (azocasein [2]; 30° C., 3 weeks): 91.1%
% Remaining Activity (azocasein [2]; 30° C., 4 weeks): 90.6%
% Remaining Activity (azocasein [2]; 30° C., 6 weeks): 85.8%
% Remaining Activity (azocasein [2]; 30° C., 8 weeks): 83.0%
% Remaining Activity (azocasein [2]; 35° C., 1 week): 82.1%
% Remaining Activity (azocasein [2]; 35° C., 2 weeks): 75.0%
% Remaining Activity (azocasein [2]; 35° C., 3 weeks): 71.4%
% Remaining Activity (azocasein [2]; 35° C., 4 weeks): 65.2%
% Remaining Activity (azocasein [2]; 35° C., 6 weeks): 55.9%
% Remaining Activity (azocasein [2]; 35° C., 8 weeks): 50.3%
% Remaining Activity (azocasein [2]; RT, 1 week): 101.3%
% Remaining Activity (azocasein [2]; RT, 2 weeks): 99.6%
% Remaining Activity (azocasein [2]; RT, 3 weeks): 98.4%
% Remaining Activity (azocasein [2]; RT, 4 weeks): 98.1%
% Remaining Activity (azocasein [2]; RT, 6 weeks): 96.0%
% Remaining Activity (azocasein [2]; RT, 8 weeks): 96.4%
Percent Remaining Activity (azocasein [3]; 40° C., 1 week): 100%
Percent Remaining Activity (azocasein [3]; 40° C., 2 weeks): 100%
Percent Remaining Activity (azocasein [3]; 40° C., 4 weeks): 93.7%
Percent Remaining Activity (azocasein [3]; 40° C., 6 weeks): 100%
Percent Remaining Activity (azocasein [3]; 40° C., 8 weeks): 100%
Percent Remaining Activity (azocasein [3]; 40° C., 12 weeks): 100%
Percent Remaining Activity (azocasein [3]; 45° C., 1 week): 100%
Percent Remaining Activity (azocasein [3]; 45° C., 2 weeks): 100%
Percent Remaining Activity (azocasein [3]; 45° C., 4 weeks): 92.7%
Percent Remaining Activity (azocasein [3]; 45° C., 6 weeks): 97.8%
Percent Remaining Activity (azocasein [3]; 45° C., 8 weeks): 100%
Percent Remaining Activity (azocasein [3]; 45° C., 12 weeks): 97.6%
Percent Remaining Activity (azocasein [3]; 50° C., 1 week): 91.8%
Percent Remaining Activity (azocasein [3]; 50° C., 2 weeks): 91.8%
Percent Remaining Activity (azocasein [3]; 50° C., 4 weeks): 82.4%
Percent Remaining Activity (azocasein [3]; 50° C., 6 weeks): 81.3%
Percent Remaining Activity (azocasein [3]; 50° C., 8 weeks): 75.2%
Percent Remaining Activity (azocasein [3]; 50° C., 12 weeks): 71.5%
Percent Remaining Activity (azocasein [3]; 55° C., 1 week): 82.1%
Percent Remaining Activity (azocasein [3]; 55° C., 2 weeks): 75.3%
Percent Remaining Activity (azocasein [3]; 55° C., 4 weeks): 46.5%
Percent Remaining Activity (azocasein [3]; RT, 1 week): 100%
Percent Remaining Activity (azocasein [3]; RT, 2 weeks): 100%
Percent Remaining Activity (azocasein [3]; RT, 4 weeks): 94.1%
Percent Remaining Activity (azocasein [3]; RT, 6 weeks): 100%
Percent Remaining Activity (azocasein [3]; RT, 8 weeks): 100%
Percent Remaining Activity (azocasein [3]; RT, 12 weeks): 100%

Trypsin [Native Trypsin, reference compound]
% Activity Remaining (azocasein [1]; 0 Hr.): 100.0%
% Activity Remaining (azocasein [1]; 64 Hr.): 62.9%
% Activity Remaining (azocasein [1]; 96 Hr.): 56.8%
% Activity Remaining (azocasein [1]; 120 Hr.): 53.1%
% Activity Remaining (azocasein [1]; 144 Hr.): 49.1%
% Activity Remaining (azocasein [1]; 240 Hr.): 41.4%
% Remaining Activity (azocasein [2]; 30° C., 1 week): 65.7%
% Remaining Activity (azocasein [2]; 30° C., 2 weeks): 54.6%
% Remaining Activity (azocasein [2]; 30° C., 3 weeks): 47.1%
% Remaining Activity (azocasein [2]; 30° C., 4 weeks): 44.9%
% Remaining Activity (azocasein [2]; 30° C., 6 weeks): 35.8%
% Remaining Activity (azocasein [2]; 30° C., 8 weeks): 30.4%
% Remaining Activity (azocasein [2]; 35° C., 1 week): 30.8%
% Remaining Activity (azocasein [2]; 35° C., 2 weeks): 19.9%
% Remaining Activity (azocasein [2]; 35° C., 3 weeks): 13.3%
% Remaining Activity (azocasein [2]; 35° C., 4 weeks): 12.8%
% Remaining Activity (azocasein [2]; 35° C., 6 weeks): 8.8%
% Remaining Activity (azocasein [2]; 35° C., 8 weeks): 5.2%
% Remaining Activity (azocasein [2]; RT, 1 week): 93.5%
% Remaining Activity (azocasein [2]; RT, 2 weeks): 86.8%
% Remaining Activity (azocasein [2]; RT, 3 weeks): 82.5%
% Remaining Activity (azocasein [2]; RT, 4 weeks): 79.5%
% Remaining Activity (azocasein [2]; RT, 6 weeks): 71.0%
% Remaining Activity (azocasein [2]; RT, 8 weeks): 64.2%
